{"source": "patent US20030091594A1", "key": {"[1]": {"biological_target": "IIIB-V3BaL Env on luciferase reporter virions (HIV-1)", "assay": "cell-based or functional assay"}, "[2]": {"biological_target": "8x-V3BaL Env (whole Env, on virions or effector cells) (HIV-1)", "assay": "cell-based or functional assay"}, "[3]": {"biological_target": "CD4-induced (CD4i) monoclonal antibody 17b", "assay": "SPR (BIACORE 2000), MAb 17b amine-coupled to CM5 chip, gp120 as analyte, 25 C"}, "[4]": {"biological_target": "CD4-induced (CD4i) monoclonal antibody 48d", "assay": "SPR (BIACORE 2000), MAb 48d amine-coupled to CM5 chip, gp120 as analyte, 25 C"}}, "data": [{"substance": "CD4-induced (CD4i) monoclonal antibody 17b", "values": [{"measurement": "concentration for 50% neutralisation of luciferase reporter virus on GHOST-CCR5 cells", "setting": "[1]", "value": 14, "unit": "ng/mL"}, {"measurement": "concentration for 90% neutralisation of luciferase reporter virus on GHOST-CCR5 cells", "setting": "[1]", "value": 90, "unit": "ng/mL"}, {"measurement": "concentration for 50% neutralisation of luciferase reporter virus on GHOST-CCR5 cells", "setting": "[2]", "value": 2, "unit": "ng/mL"}, {"measurement": "concentration for 90% neutralisation of luciferase reporter virus on GHOST-CCR5 cells", "setting": "[2]", "value": 15, "unit": "ng/mL"}]}, {"substance": "monoclonal antibody 50.1", "values": [{"measurement": "concentration for 50% neutralisation of reporter virus", "setting": "[1]", "value": 95, "unit": "ng/mL"}, {"measurement": "concentration for 90% neutralisation of reporter virus", "setting": "[1]", "value": 375, "unit": "ng/mL"}, {"measurement": "concentration for 50% neutralisation of reporter virus", "setting": "[2]", "value": 45, "unit": "ng/mL"}, {"measurement": "concentration for 90% neutralisation of reporter virus", "setting": "[2]", "value": 610, "unit": "ng/mL"}]}, {"substance": "CD4-induced (CD4i) monoclonal antibody 48d", "values": [{"measurement": "concentration for 50% neutralisation of luciferase reporter virus on GHOST-CCR5 cells", "setting": "[1]", "value": "> 5000", "unit": "ng/mL"}, {"measurement": "concentration for 90% neutralisation of luciferase reporter virus on GHOST-CCR5 cells", "setting": "[1]", "value": "> 5000", "unit": "ng/mL"}, {"measurement": "concentration for 50% neutralisation of luciferase reporter virus on GHOST-CCR5 cells", "setting": "[2]", "value": 3, "unit": "ng/mL"}, {"measurement": "concentration for 90% neutralisation of luciferase reporter virus on GHOST-CCR5 cells", "setting": "[2]", "value": "> 200", "unit": "ng/mL"}, {"measurement": "percent neutralisation at 200 ng/ml", "setting": "[2]", "value": 88, "unit": "%"}]}, {"substance": "8x gp120 (soluble gp120 of the HIV-1/IIIBx 8x Env clone) (from UniProt P04578 33-511)", "values": [{"measurement": "Kd", "setting": "[3]", "value": 15, "unit": "nM"}, {"measurement": "koff", "setting": "[3]", "value": 0.002, "unit": "s⁻¹"}, {"measurement": "kon", "setting": "[3]", "value": 100000, "unit": "M⁻¹ s⁻¹"}, {"measurement": "Kd", "setting": "[4]", "value": 6, "unit": "nM"}, {"measurement": "koff", "setting": "[4]", "value": 0.001, "unit": "s⁻¹"}, {"measurement": "kon", "setting": "[4]", "value": 200000, "unit": "M⁻¹ s⁻¹"}]}]}
